Test results: patent US20250092146A1 (ABILITA BIO, published 2025)

T1: human CCR7 (hCCR7) (human, UniProt P32248 25-378)
T1 construct: HEK293 cells stably expressing hCCR7
T1 sequence: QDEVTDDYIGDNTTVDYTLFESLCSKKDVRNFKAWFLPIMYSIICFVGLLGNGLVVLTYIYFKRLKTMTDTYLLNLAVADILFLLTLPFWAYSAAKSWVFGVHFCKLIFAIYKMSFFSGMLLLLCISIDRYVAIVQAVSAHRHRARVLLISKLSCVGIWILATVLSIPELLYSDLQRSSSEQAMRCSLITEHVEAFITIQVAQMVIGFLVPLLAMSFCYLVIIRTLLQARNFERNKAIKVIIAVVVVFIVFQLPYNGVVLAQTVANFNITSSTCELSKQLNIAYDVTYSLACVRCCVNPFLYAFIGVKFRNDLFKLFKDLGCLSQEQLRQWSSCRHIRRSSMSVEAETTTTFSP


What was measured:
[1] = target: T2, human CCR8 (hCCR8) (human, UniProt P51685 1-355); test: cell-based or functional assay
T2 sequence (P51685 whole entry): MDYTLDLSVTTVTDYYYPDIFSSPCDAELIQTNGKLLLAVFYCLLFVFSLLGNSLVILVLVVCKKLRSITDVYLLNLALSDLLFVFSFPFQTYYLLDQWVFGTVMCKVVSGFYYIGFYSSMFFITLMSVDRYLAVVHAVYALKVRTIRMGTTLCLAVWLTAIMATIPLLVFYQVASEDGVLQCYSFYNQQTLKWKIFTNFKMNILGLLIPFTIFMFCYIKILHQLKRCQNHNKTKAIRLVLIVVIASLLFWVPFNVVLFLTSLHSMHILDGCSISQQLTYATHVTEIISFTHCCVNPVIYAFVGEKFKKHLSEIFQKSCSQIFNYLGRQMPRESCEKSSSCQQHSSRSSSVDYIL

[2] = target: T2, human CCR8 (hCCR8); test: competition with 10 nM VHH-1-Fc, flow cytometry on HEK293-hCCR8 cells
Experimental: Binding studies were conducted on hCCR8 expressing cells for 60 minutes at 4° C., followed by two washes and then 30 minutes incubation at 4° C. with the Zenon R-Phycoerythrin Anti-human IgG secondary antibody (ThermoFisher Scientific, #Z-25455). Binding to cells was assessed by flow cytometry.

[3] = target: T1, human CCR7 (hCCR7); test: flow cytometry, HEK293 cells stably expressing hCCR7, anti-VHH detection
Experimental: Recombinant cells expressing hCCR8 were resuspended to a final concentration of 1.0×10⁶ cells/ml in FACS buffer. […] Dilutions of purified VHHs were incubated with cells for 60 min. Individual samples were distributed into 96-well v-bottom plates and incubated for one hour at 4° C. […] Binding was determined in parallel on HEK293 cells stably expressing the closely related receptor hCCR7 (SEQ ID NO: 41), as control for binding specificity.

[4] = target: T3, Chimera A (hCCR8 with its N-terminus replaced by amino acids 1-22 of hCCR1) (human (hCCR8/hCCR1 chimera), UniProt P51685 18-355); test: flow cytometry (MFI), HEK293T cells expressing Chimera A (hCCR8 with hCCR1 N-terminus)
T3 construct: Transiently transfected HEK293T cells
T3 sequence (P51685 other isoform, or with tags, fused parts or gaps mutant): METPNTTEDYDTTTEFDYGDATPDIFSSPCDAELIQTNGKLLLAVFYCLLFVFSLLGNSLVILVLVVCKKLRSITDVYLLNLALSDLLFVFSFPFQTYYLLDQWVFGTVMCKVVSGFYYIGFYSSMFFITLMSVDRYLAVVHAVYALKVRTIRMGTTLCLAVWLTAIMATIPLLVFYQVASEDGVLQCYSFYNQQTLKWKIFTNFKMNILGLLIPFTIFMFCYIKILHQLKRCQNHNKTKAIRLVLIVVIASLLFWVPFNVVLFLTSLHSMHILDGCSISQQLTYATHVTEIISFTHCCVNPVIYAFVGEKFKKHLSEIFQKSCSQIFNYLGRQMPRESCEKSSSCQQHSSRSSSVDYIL
Excerpt: Determination of binding epitope location on hCCR8 was done for representative VHH-Fc antibodies by flow cytometry analysis using HEK293T cells expressing hCCR8 or two receptor chimeras comprised of combined sequence elements taken from hCCR8 (SEQ ID NO: 37) and hCCR1 (SEQ ID NO: 39). In the first, Chimera A based on hCCR8, the N-terminal region of the receptor (SEQ ID NO: 38) was replaced with a sequence encoding the N-terminal region of hCCR1 (SEQ ID NO: 40). In Chimera B based on hCCR1, the N-terminal region of the receptor was replaced by the sequence encoding the hCCR8 N-terminus (SEQ ID NO: 38).

Binder | EC50 (nM), ADCC reporter assay, mouse FcγRIV effector cells, HuT-78 target cells [1] | Fold Induction, ADCC reporter assay, mouse FcγRIV effector cells, HuT-78 target cells [1] | other results
VHH-1-mFc (Fc fusion) QVQLQESGGGLVQAGGSLRLSCVASGSTSSIRRIGWYRQAPGKQRELVARFSSGGGTNYADFVKGRFTISGDNAKNTMYLQMNSLKPEDTAVYYCSARRLLGTSRVDYWGQGTQVTVSSEPRGPTIKPCPPCKCPAPNLLGGPSVFIFPPKIKDVLMISLSPIVTCVVVDVSEDDPDVQISWFVNNVEVHTAQTQTHREDYNSTLRVVSALPIQHQDWMSGKEFKCKVNNKDLPAPIERTISKPKGSVRAPQVYVLPPPEEEMTKKQVTLTCMVTDFMPEDIYVEWTNNGKTELNYKNTEPVLDSDGSYFMYSKLRVEKKNWVERNSYSCSVVHEGLHNHHTTKSFSRTPGK | 0.015 nM | 12 fold | –
VHH-1.3-7-mFc (Fc fusion) EVQLVESGGGLVQPGGSLRLSCAVSGSTSSIRRIGWYRQAPGKGRELVAHFSSGGGTNYADSVKGRFTISGDKSKNTMYLQMNSLRAEDTAVYYCSARRLLGTSRVDYWGQGTTVTVSSEPRGPTIKPCPPCKCPAPNLLGGPSVFIFPPKIKDVLMISLSPIVTCVVVDVSEDDPDVQISWFVNNVEVHTAQTQTHREDYNSTLRVVSALPIQHQDWMSGKEFKCKVNNKDLPAPIERTISKPKGSVRAPQVYVLPPPEEEMTKKQVTLTCMVTDFMPEDIYVEWTNNGKTELNYKNTEPVLDSDGSYFMYSKLRVEKKNWVERNSYSCSVVHEGLHNHHTTKSFSRTPGK | 0.007 nM | 12 fold | –
VHH-1.3-19-mFc (Fc fusion) EVQLVESGGGLVQPGGSLRLSCAVSGSTSSIRGIGWYRQAPGKGRELVAHFSSGGGTNYADSVKGRFTISGDKSKNTMYLQMNSLRAEDTAVYYCSARRLLGTSRVDYWGQGTQVTVSSEPRGPTIKPCPPCKCPAPNLLGGPSVFIFPPKIKDVLMISLSPIVTCVVVDVSEDDPDVQISWFVNNVEVHTAQTQTHREDYNSTLRVVSALPIQHQDWMSGKEFKCKVNNKDLPAPIERTISKPKGSVRAPQVYVLPPPEEEMTKKQVTLTCMVTDFMPEDIYVEWTNNGKTELNYKNTEPVLDSDGSYFMYSKLRVEKKNWVERNSYSCSVVHEGLHNHHTTKSFSRTPGK | 0.024 nM | 11.3 fold | –
VHH-1.3-20-mFc (Fc fusion) EVQLVESGGGLVQPGGSLRLSCAVSGSTSSIRGIGWYRQAPGKGRELVARFISGGGTNYADSVKGRFTISGDNSKNTMYLQMNSLRAEDTAVYYCSARILLGTSRVDYWGQGTQVTVSSEPRGPTIKPCPPCKCPAPNLLGGPSVFIFPPKIKDVLMISLSPIVTCVVVDVSEDDPDVQISWFVNNVEVHTAQTQTHREDYNSTLRVVSALPIQHQDWMSGKEFKCKVNNKDLPAPIERTISKPKGSVRAPQVYVLPPPEEEMTKKQVTLTCMVTDFMPEDIYVEWTNNGKTELNYKNTEPVLDSDGSYFMYSKLRVEKKNWVERNSYSCSVVHEGLHNHHTTKSFSRTPGK | 0.345 nM | 9.74 fold | –
VHH-1.3-21-mFc (Fc fusion) EVQLVESGGGLVQPGGSLRLSCAVSGSTSSIRGIGWYRQAPGKGRELVARFISGGGTNYADSVKGRFTISADNSKNTMYLQMNSLRAEDTAVYYCSARRLLGTSRVDYWGQGTQVTVSSEPRGPTIKPCPPCKCPAPNLLGGPSVFIFPPKIKDVLMISLSPIVTCVVVDVSEDDPDVQISWFVNNVEVHTAQTQTHREDYNSTLRVVSALPIQHQDWMSGKEFKCKVNNKDLPAPIERTISKPKGSVRAPQVYVLPPPEEEMTKKQVTLTCMVTDFMPEDIYVEWTNNGKTELNYKNTEPVLDSDGSYFMYSKLRVEKKNWVERNSYSCSVVHEGLHNHHTTKSFSRTPGK | 0.042 nM | 11.4 fold | –
CCL1 (ligand, UniProt P22362 24-96, looked up, also called hCCR8 agonist CCL1) KSMQVPFSRCCFSFAEQEIPLRAILCYRNTSSICSNEGLIFKLKRGKEACALDTVGWVQRHRKMLRHCPSKRK | – | – | binding result [2]: binds
VHH-1 (VHH, not shown: small tags and cut ends, Monovalent VHH purified from E. coli periplasm (PelB signal peptide)) VHH: QVQLQESGGGLVQAGGSLRLSCVASGSTSSIRRIGWYRQAPGKQRELVARFSSGGGTNYADFVKGRFTISGDNAKNTMYLQMNSLKPEDTAVYYCSARRLLGTSRVDYWGQGTQVTVSS | – | – | binding result [3]: no binding
VHH-3 (VHH, not shown: small tags and cut ends, Monovalent VHH purified from E. coli periplasm (PelB signal peptide)) VHH: QVQLQESGGGLVQAGGSLRLSCVASGSTSSIRRIGWYRQAPGKQRELVARFSSGGGTNYADFVKGRFTISGDNAKNTMYLQMNSLKPEDTAVYYCGARRLLGTSRVDYWGQGTQVTVSS | – | – | binding result [3]: no binding
BMS-4A19 (antibody, human IgG1, kappa, Comparator from WO2021194942A1, made in HEK293 cells) heavy: not shown light: DIVMTQTPLSLSVTPGQPASISCRSSQSLFHSSGNTYLHWYLQKPGQPPQLLIYKVSNRFSGVPDRFSGSGSGTDFTLKISRVEAEDVGVYYCSQSTHVPFTFGQGTKLEIKRTVAAPSVFIFPPSDEQLKSGTASVVCLLNNFYPREAKVQWKVDNALQSGNSQESVTEQDSKDSTYSLSSTLTLSKADYEKHKVYACEVTHQGLSSPVTKSFNRGEC | – | – | binding result [4]: no binding
